Two substances from publication PMC7877763 can be followed below.

In assay [1] the target is GPR-foldon (foldon stabilized collagen model peptide containing a (GPP)5GPR(GPP)6 collagen sequence). The experiment in a line: BLI; biotinylated GPR-foldon immobilised on streptavidin biosensors, blocked with 10 uM biocytin; HSP47 in solution; 50 mM Tris, 150 mM NaCl, pH 7.5 (TBS); kon and koff fitted with a 1:1 Langmuir model, KD = koff/kon. In general terms: In BLI a coated tip is dipped into the sample, and binding shifts an interference pattern.

Assay [2] has the same target. In words: ELISA; ELISA-like binding assay; type I collagen from rat tail coated at 10 ug/mL on MaxiSorp plates (coating of GPR-foldon not described); His-tagged HSP47 at 1.2 to 5,000 nM in solution; detected with HRP-coupled anti-His antibody; four-parameter logistic fit. For orientation: An ELISA detects its analyte on a solid surface through an enzyme-linked reagent.

What is called Kd is the equilibrium constant for the complex coming apart. A lower Kd goes with a tighter complex.

On to “recombinant canine HSP47-R222S (from UniProt C7C419 36-418) (natural protein)”, for which the Kd in assay [1] turned out to be 11500 nM; in assay [2], 1500 nM.
Turning to “recombinant wild-type canine HSP47 (from UniProt C7C419 36-418) (natural protein)”, the Kd in assay [1] was 409 nM; in assay [2], 56 nM.
